Data published in PMC8423902 (Cell Reports, 2021).

Biological target: trimeric SARS-CoV-2 ectodomain (S 6P trimer, residues 16-1206) (SARS-CoV-2, early isolate GenBank …, UniProt P0DTC2, stabilised)
Test: cryo-EM structure

B1: C118 Fab (Fab, V domains shown)
VH: QVQLVESGGGVVQPGRSLRLSCAASGFTFSNYAMHWVRQAPGKGLEWVAVISYDGSNKYYADSVKGRFTISRDNSKNTLYLQMNSLRAEDTAIYYCASGYTGYDYFVRGDYYGLDVWGQGTTVTVSS
VL: QPVLTQSPSASASLGASVKLTCTLSSGHSSYAIAWHQQQPEKGPRYLMKLNTDGSHSKGDGIPDRFSGSSSGAERYLTISSLQSEDEADYYCQTWGTGILVFGGGTKLTVL
B1: binds.
